# Measurements reported in article PMC3427372, “Proteomic Analysis Reveals New Cardiac-Specific Dystrophin-Associated Proteins” (PLoS ONE, 2012).
# Biological target: T1, Dystrophin (mouse (endogenous in cardiac and …, UniProt P11531 1-3678))
# T1 construct: dystrophin, mouse, the large (427 kDa) full-length form of muscle cells; also called full-length dystrophin; full length dystrophin; source: endogenous, mouse cardiac ventricle and skeletal muscle (quadriceps) lysate
# Assay: co-IP; DYS-IP (MANDYS1 cross-linked to protein G magnetic beads) from wild type mouse cardiac muscle lysate, 3 hr at 4°C, Western blot; controls IgG-IP and mdx
# Conditions: partners not purified
# T1 sequence (P11531 whole entry): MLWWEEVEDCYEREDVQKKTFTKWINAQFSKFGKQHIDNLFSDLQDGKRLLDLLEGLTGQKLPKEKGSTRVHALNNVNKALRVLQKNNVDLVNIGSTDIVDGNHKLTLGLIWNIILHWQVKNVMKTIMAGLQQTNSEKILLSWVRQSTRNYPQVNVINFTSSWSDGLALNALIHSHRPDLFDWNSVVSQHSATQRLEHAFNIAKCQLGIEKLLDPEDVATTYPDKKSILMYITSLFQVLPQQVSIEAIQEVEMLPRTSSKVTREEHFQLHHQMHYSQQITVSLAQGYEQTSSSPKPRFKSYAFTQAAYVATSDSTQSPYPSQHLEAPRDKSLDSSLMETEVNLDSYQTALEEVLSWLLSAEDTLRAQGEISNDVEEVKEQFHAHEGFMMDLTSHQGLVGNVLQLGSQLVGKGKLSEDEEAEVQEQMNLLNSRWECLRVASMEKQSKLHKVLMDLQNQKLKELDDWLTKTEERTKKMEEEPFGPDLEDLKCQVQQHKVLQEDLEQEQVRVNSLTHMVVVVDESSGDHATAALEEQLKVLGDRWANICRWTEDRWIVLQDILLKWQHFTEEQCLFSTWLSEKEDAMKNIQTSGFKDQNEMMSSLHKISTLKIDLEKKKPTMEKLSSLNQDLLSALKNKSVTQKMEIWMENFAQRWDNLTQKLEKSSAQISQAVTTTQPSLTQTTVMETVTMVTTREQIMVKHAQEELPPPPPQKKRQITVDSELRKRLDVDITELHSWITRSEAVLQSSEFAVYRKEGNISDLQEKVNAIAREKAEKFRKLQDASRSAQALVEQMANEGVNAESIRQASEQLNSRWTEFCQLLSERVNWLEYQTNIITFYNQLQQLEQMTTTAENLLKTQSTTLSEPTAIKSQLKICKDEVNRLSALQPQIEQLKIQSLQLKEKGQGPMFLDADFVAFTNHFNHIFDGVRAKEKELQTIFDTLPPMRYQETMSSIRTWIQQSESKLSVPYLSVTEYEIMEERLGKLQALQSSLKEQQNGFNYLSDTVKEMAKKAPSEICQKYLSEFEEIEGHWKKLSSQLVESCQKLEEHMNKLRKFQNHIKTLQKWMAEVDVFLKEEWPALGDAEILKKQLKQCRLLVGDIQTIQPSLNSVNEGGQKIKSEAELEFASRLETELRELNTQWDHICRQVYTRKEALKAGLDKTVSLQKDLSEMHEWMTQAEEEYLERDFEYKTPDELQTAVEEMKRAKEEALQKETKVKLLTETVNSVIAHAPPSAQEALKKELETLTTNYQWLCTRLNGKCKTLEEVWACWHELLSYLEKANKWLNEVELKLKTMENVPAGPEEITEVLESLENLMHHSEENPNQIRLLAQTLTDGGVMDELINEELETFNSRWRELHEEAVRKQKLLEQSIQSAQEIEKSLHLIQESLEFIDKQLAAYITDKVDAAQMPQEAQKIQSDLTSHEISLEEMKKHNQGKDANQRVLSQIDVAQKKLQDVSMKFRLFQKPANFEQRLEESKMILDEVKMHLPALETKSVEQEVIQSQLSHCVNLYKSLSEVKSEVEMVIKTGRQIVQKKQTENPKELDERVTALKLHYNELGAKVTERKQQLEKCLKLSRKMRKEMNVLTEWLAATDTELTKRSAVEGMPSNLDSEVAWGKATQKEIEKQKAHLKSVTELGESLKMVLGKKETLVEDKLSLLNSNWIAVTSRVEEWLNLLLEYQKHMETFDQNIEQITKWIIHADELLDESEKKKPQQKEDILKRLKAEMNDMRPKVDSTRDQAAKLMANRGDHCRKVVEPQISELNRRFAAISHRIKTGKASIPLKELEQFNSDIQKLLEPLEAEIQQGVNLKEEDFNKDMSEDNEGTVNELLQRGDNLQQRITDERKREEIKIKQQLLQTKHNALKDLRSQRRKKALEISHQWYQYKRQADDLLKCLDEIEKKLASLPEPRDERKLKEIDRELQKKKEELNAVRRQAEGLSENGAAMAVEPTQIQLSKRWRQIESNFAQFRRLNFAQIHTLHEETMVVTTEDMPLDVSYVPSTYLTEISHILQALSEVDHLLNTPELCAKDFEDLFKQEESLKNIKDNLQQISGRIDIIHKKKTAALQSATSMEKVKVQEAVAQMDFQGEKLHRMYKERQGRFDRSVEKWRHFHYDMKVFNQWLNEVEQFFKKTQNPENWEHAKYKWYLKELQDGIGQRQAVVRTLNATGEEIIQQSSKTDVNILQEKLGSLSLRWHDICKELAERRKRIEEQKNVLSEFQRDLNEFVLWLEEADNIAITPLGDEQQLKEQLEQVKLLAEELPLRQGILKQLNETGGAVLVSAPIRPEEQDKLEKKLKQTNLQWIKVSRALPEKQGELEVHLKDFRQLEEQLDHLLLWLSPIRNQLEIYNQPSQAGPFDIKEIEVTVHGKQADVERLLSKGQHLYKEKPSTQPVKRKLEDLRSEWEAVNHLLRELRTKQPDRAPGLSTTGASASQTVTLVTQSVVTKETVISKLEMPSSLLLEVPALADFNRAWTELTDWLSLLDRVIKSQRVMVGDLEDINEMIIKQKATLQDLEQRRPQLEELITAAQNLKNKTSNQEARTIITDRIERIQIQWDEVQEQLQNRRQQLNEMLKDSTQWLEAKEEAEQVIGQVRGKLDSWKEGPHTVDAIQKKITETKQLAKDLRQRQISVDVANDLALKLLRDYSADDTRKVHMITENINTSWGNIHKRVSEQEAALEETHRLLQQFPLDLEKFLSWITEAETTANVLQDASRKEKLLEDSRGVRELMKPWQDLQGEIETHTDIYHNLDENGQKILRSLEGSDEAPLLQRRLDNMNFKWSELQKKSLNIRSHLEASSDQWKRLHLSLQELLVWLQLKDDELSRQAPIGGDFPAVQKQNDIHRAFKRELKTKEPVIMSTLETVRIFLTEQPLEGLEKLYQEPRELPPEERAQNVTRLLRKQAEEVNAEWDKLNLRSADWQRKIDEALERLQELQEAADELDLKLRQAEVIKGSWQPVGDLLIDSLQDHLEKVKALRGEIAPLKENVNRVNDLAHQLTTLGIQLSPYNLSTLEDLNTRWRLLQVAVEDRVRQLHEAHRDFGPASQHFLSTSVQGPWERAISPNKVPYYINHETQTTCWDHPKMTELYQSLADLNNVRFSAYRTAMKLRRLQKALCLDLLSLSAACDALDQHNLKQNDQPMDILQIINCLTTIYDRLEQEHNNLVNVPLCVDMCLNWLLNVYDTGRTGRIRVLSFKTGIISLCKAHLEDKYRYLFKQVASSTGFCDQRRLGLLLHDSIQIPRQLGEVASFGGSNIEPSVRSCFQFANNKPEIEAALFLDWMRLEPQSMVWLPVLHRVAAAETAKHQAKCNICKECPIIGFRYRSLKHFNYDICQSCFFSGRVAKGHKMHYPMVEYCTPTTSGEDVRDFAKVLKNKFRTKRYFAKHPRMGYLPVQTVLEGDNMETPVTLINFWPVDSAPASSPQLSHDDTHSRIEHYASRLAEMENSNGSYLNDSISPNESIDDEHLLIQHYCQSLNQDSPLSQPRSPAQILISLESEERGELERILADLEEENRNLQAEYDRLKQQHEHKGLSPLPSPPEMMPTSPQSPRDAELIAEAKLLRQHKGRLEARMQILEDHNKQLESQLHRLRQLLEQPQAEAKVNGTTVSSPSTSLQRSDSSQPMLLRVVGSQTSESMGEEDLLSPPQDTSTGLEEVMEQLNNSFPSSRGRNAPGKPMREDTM
row,Binder,fold less associated with dystrophin in cardiac than in skeletal muscle DYS-IPs [fold]
1,"β1-Syntrophin (natural protein, UniProt Q99L88 1-537, looked up, β1-syntrophin, mouse; source: endogenous, mouse cardiac ventricle and skeletal muscle (quadriceps) lysate) MAVAAAAVAAPAGGGGARAQRSGLLEVLVRDRWHKVLVNLSEDALVLSCEEGAAAYNGIGAATNGSFCRGSGTGHPVPGVAQAPDSPAGVRTAFTDLPEQVPESISNQKRGVKVLKQELGGLGISIKGGKENKMPILISKIFKGLAADQTQALYVGDAILSVNGADLRDATHDEAVQALKRAGKEVLLEVKYMREATPYVKKGSPVSEIGWETPPPESPRLGGGSAEPLSSQSFSFHRDRKSIPLKMCYVTRNMTLADPENRQLEIHSPDAKHTVILRSKDSATAQAWFSAIHSNAGDLLTRVVADIREQLGKTGIAGSREIRHLGWLAEKVPGESEKQWKPALVVLTEKDLLIYDSMPRRKEAWFSPVHSYPLLATRLVHSGPGKGSPQAGMDLSFATRTGTKQGIETHLFRAEISRDLSHWTRSIVQGCHNSAELTAEITTACTYRNQECRLTIHYDNGFSISTEPQDGAFPKTIIQSPYEKLKMSSDDGIRMLYLDFGGKEGEIQLDLHSCPKPIVFIIHSFLSAKITRLGLVA",4
2,"α1-dystrobrevin (natural protein, UniProt Q9D2N4 1-746, looked up, α-dystrobrevin splice variant α1, mouse; told apart on blots by molecular weight with a pan α-dystrobrevin antibody; also called DTNA1; source: endogenous, mouse cardiac ventricle and skeletal muscle (quadriceps) lysate) MIEDSGKRGNTMAERRQLFAEMRAQDLDRIRLSTYRTACKLRFVQKKCNLHLVDIWNVIEALRENALNNLDPNIELNVARLEAVLSTIFYQLNKRMPTTHQIHVEQSISLLLNFLLAAFDPEGHGKISVFAVKMALATLCGGKIMDKLRYIFSMISDSSGVMVYGRYDQFLREVLKLPTAVFEGPSFGYTEQSARSCFSQQKKVTLNGFLDTLMSDPPPQCLVWLPLLHRLANVENVFHPVECSYCHSESMMGFRYRCQQCHNYQLCQDCFWRGHAGGSHSNQHQMKEYTSWKSPAKKLTNALSKSLSCASSREPLHPMFPDQPEKPLNLAHIVPPRPVTSMNDTLFSHSVPSSGSPFITRSSPPKDSEVEQNKMLARAAPAFLKGRGIQYSLNVADRLADEHVLIGLYVNMLRNDPPCMLESSNRLDEEHRLIARYAARLAAESSSSQPTQQRSAPDISFTIDANKQQRQLIAELENKNREILQEIQRLRVEHEQASQPTPEKAQQNPTLLAELRLLRQRKDELEQRMSALQESRRELMVQLEGLMKLLKEEELKQGTQGASSPRSSPSHTISRPIPMPIRSASACPTPTHTPQDSLTGVGGDVQEAFAQSSRRNLRSDLLVAADSITNTMSSLVKELNSEVASETESTVDSEFSRPQFEDLAPSPTSEKAFLAQIHSRKPGYIHGGAASTTHGDMVPEDGDPYTQPEDGNYENESVRQLENELQLEEYLKQKLQDEAYQVSLQG",~5
